Patent US20070089183A1, “Size and/or growth engineering by modulation of the interaction between calmodulin, and brassinosteroid biosynthetic enzymes and orthologs therof” (Washington State University, priority 2005, published 2007)
Numbering of substitutions follows the chain as printed. Numbers in names are those of the source.

What was measured:
dwf1 null mutant = assay: complementation of dwf1 null mutant, plant phenotype; format: in vivo, Arabidopsis; conditions: for phenotype rescue of dwf1 mutant: 35S promoter-driven construct in homozygous dwf1 knockout
From the text: To circumvent the infertility problem associated with homozygous dwf1 mutants^6,7, a heterozygous dwf1 line (SALK—006932, ref. 23) was chosen for transformation. A T-DNA insert is shown in FIG. 6, panel A, and detailed characterizations confirmed that it is a heterozygous dwf1 null mutation line (FIG. 2a, b).
Specifically, heterozygous SALK—006932 plants were transformed with a 35S::DWF1 construct (FIG. 6, panel B). […] Using polymerase chain reaction (PCR) analysis, one dwarf and seven normal plants were identified that carried at least one copy of the 35S::DWF1 complementary construct and were homozygous knockout at the endogenous DWF1 loci. The dwarfism in the dwarf plant was confirmed to be caused by a failure in expression of the transgene (FIG. 2c, d). The overexpressed (numbers 1, 2, 3, 8) and equally expressed (numbers 5, 7) lines grew like the wild-type, confirming a previous report^6. […] At the adult stage, 7 out of the 8 complemented lines reached similar levels of height and fertility as that of wild-type plants (FIG. 3c).
Mutants. Three mutants were produced to disrupt the conserved secondary structure of the CaMBD of DWF1 (FIG. 6, Panel B): V531D (M1), aimed at disturbing the hydrophobic surface; KYR521-523DGD (M2, K521, Y522 and R523 are changed to D521, G522 and D523), aimed at changing the net surface charges; and Δ518-539 (M3), a total deletion of the CaMBD. […] A similar strategy was used to deliver the mutant dwf1 complimentary constructs (FIG. 6, Panel B) into the heterozygous dwf1 plants. Visual checks identified 18, 11 and 19 dwarf plants in the T1 population carrying 35S::DWF1(V531D), 35S::DWF1(KYR521-523DGD) and 35S::DWF1(Δ518-539) complimentary constructs, respectively. These plants were confirmed to carry at least one copy of the transgene and the homozygous knockout at the endogenous DWF1 loci.
To ensure a reliable comparison of the complementary effects of normal DWF1 and the three mutants, T2 plants with similar expression levels were compared (FIG. 3b-d). […] Seeds were produced in most of the slightly shorter siliques of cM1 plants (FIG. 3b, c). […] The dwarf phenotypes of cM1, cM2, cM3 and the dwf1 mutant were rescued by exogenous application of brassinolide (data not shown).

[1] = test system: DWF1 function (sitosterol/isofucosterol levels); assay: GC-MS sterol analysis of complemented plants; format: in vivo, Arabidopsis; conditions: endogenous sitosterol/isofucosterol by GC-MS, six- to seven-week-old plants
Experimental: DWF1 catalyses the conversion of isofucosterol to sitosterol and 24-methylenecholesterol to campesterol^6,7. The endogenous levels of sitosterol/isofiicosterol or campesterol/24-methylenecholesterol in wild-type, dwarf and complemented plants were analysed using gas chromatography-mass spectrometry (GC-MS) to monitor the function of the complementing DWF1, DWF1(V531D), DWF1(KYR521-523DGD) and DWF1(Δ518-539) carried in cW, cM1, cM2 and cM3 plants, respectively.
Sterol analysis. Six- to seven-week-old greenhouse-grown plants were harvested and ground into a fine powder in liquid nitrogen. Aliquots of 100 mg ground material were sponified in 1 N NaOH, 70% ethanol at 70° C. for 2 h. The sterols were extracted three times with 500 μl hexane, and the combined extracts were dried and dissolved in 100 μl of methylene chloride. GC-MS analyses were conducted on an Agilent 6890 GC system with 5973N mass selective detector. A 1 μl aliquot of methylene chloride extract containing the underivatized sterols was loaded by cool on column injection on a Zebron (Phenomenex) ZB-5 column, 30 m×0.25 mm internal diameter with 0.25 μm film thickness. Chromatography was accomplished using He as the carrier gas at a flow rate of 0.7 ml min^−1. The column oven temperature was programmed to run from 40° C. to 300° C. increased at 20° C. min^−1, with a hold for 10 min at 300° C. Identification and quantification of sterols was accomplished by comparison to authentic standards based on the retention time, peak area and mass fragmentation pattern.

35S-CaM = assay: 35S-CaM-binding assay; conditions: purified recombinant protein covering amino acid 517 to the stop codon, 2 μg per lane
Experimental: Total proteins from E. coli expressing pScreen-1b (lane 1) or expressing pScreen-1b-517-561 (lane 2) were stained (left panel) or bound to ^35S-CaM in the presence of Ca^2+ (middle panel) or EGTA (right panel), a Ca^2+ chelator. […] Total proteins from plants expressing the Flag-tagged DWF1 (DWF1-Flag) or wild-type plants (WT) were incubated with antibodies against full-length human CaM1 (anti-CaM1), AtBET10 (anti-AtBET10) or non-immune serum (Non-im.); immunocomplexes were separated on SDS-PAGE and detected with anti-Flag M2 monoclonal antibody. […] Total proteins from E. coli expressing pET32b (lane 1), pET32b-1-349 (lane 2), pET32b-348-518 (lane 3), pScreen-1b (lane 4) or pScreen-1b-517-561 (lane 5) were stained (left) or were bound to ^35S-CaM (right). […] CaM and the peptide-CaM complex is indicated.
To confirm further the CaM-binding ability of DWF1, the positive clone from the library screening was expressed in Escherichia coli and tested for ^35S-CaM binding^15 in the presence of Ca^2+, EGTA, a Ca^2+ chelator, or Mg^2+. […] C-terminal Flag-tagged DWF1 overexpression lines of Arabidopsis were produced to study the DWF1-CAM interaction in vivo. Because of the dynamic nature of the interaction between DWF1 and Ca^2+/CaM, co-immunoprecipitation using a prior in vivo crosslinking strategy^16 was adapted to verify their interaction under physiological conditions.
The CaMBD is typically comprised of a stretch of 12-30 contiguous amino acids that contain a positive net charge and have a propensity to form an amphiphilic α-helix^4. […] A peptide corresponding to 518-539 was synthesized, and its CaM-binding ability was confirmed using PCM6 (ref. 17) in a gel mobility shift assay^15 (FIG. 1e).
Mutants. Three mutants were produced to disrupt the conserved secondary structure of the CaMBD of DWF1 (FIG. 6, Panel B): V531D (M1), aimed at disturbing the hydrophobic surface; KYR521-523DGD (M2, K521, Y522 and R523 are changed to D521, G522 and D523), aimed at changing the net surface charges; and Δ518-539 (M3), a total deletion of the CaMBD. […]

Ca^2+/CaM = assay: gel mobility shift assay of BR biosynthetic proteins; format: binding, potato; conditions: FIG. 5
From the text: PCM1: potato calmodulin 1; PCM6: potato calmodulin 6. Sequences of respective CaMBD are also shown: N-DWF4 (SEQ ID NO:18); C-DWF4 (SEQ ID NO:19); CPD (SEQ ID NO:17); and DWF5 (SEQ ID NO:20).
DWF1Ca^2+ is an important second messenger and an integral part of the cellular signalling system in plants^5,29. Applicants were thus prompted to survey the CaM-binding properties of other proteins involved in brassinosteroid biosynthesis.

B1: DWF1: wild-type Arabidopsis DWARF1 (At3g19820), expressed from 35S::DWF1 in cW plants (protein, listed as Arabidopsis thaliana)
chain: MSDLQTPLVRPKRKKTWVDYFVKFRWIIVIFIVLPFSATFYFLIYLGDMWSESKSFEKRQKEHDENVKKVIKRLKGRDASKDGLVCTARKPWIAVGMRNVDYKRARHFEVDLGEFRNILEINKEKMTARVEPLVNMGQISRATVPMNLSLAVVAELDDLTVGGLINGYGIEGSSHIYGLFADTVEAYEIVLAGGELVRATRDNEYSDLYYAIPWSQGTLGLLVAAEIRLIKVKEYMRLTYIPVKGDLQALAQGYIDSFAPKDGDKSKIPDFVEGMVYNPTEGVMMVGTYASKEEAKKKGNKINNVGWWFKPWFYQHAQTALKKGQFVEYIPTREYYHRHTRCLYWEGKLILPFGDQFWFRYLLGWLMPPKVSLLKATQGEAIRNYYHDMHVIQDMLVPLYKVGDALEWVHREMEVYPIWLCPHKLFKQPIKGQIYPEPGFEYENRQGDTEDAQMYTDVGVYYAPGCVLRGEEFDGSEAVRRMEKWLIENHGFQPQYAVSELDEKSFWRMFNGELYEECRKKYRAIGTFMSVYYKSKKGRKTEKEVREAEQAHLETAYAEAD
phenotype rescue of dwf1 mutant (dwf1 null mutant): completely rescue | recovery of DWF1 function [1]: recovered to a level comparable to that in wild-type plants

B2: KYR52-5231DGD: Arabidopsis thaliana DWF1 protein K521D, Y522G, R523D triple mutant (protein, listed as Arabidopsis thaliana)
chain: B1 chain with K521D, Y522G, R523D
CaM-binding ability (35S-CaM): undetectable | phenotype rescue of dwf1 mutant (dwf1 null mutant): very slight phenotypic rescue | recovery of DWF1 function [1]: almost non-existent

B3: V531D: Arabidopsis thaliana DWF1 protein V531D mutant, disturbing the hydrophobic surface of the CaMBD (protein, listed as Arabidopsis thaliana)
chain: B1 chain with V531D
CaM-binding ability (35S-CaM): markedly decreased | phenotype rescue of dwf1 mutant (dwf1 null mutant): some degree of phenotype rescue | height of flowering stems relative to the wild-type plant (dwf1 null mutant; T2 plants with similar expression levels): up to 40% | recovery of DWF1 function [1]: restored to some extent

B4: DWF4: Arabidopsis brassinosteroid biosynthetic enzyme DWF4 (AT3G50660) (protein, listed as Arabidopsis thaliana)
chain: MFETEHHTLLPLLLLPSLLSLLLFLILLKRRNRKTRFNLPPGKSGWPFLGETIGYLKPYTATTLGDFMQQHVSKYGKIYRSNLFGEPTIVSADAGLNRFILQNEGRLFECSYPRSIGGILGKWSMLVLVGDMHRDMRSISLNFLSHARLRTILLKDVERHTLFVLDSWQQNSIFSAQDEAKKFTFNLMAKHIMSMDPGEEETEQLKKEYVTFMKGVVSAPLNLPGTAYHKALQSRATILKFIERKMEERKLDIKEEDQEEEEVKTEDEAEMSKSDHVRKQRTDDDLLGWVLKHSNLSTEQILDLILSLLFAGHETSSVAIALAIFFLQACPKAVEELREEHLEIARAKKELGESELNWDDYKKMDFTQCVINETLRLGNVVRFLHRKALKDVRYKGYDIPSGWKVLPVISAVHLDNSRYDQPNLFNPWRWQQQNNGASSSGSGSFSTWGNNYMPFGGGPRLCAGSELAKLEMAVFIHHLVLKFNWELAEDDQPFAFPFVDFPNGLPIRVSRIL
Ca^2+/CaM binding (Ca^2+/CaM): Ca^2+/CaM-binding proteins

B5: DWF5: Arabidopsis DWF5 (AT1G50430), sterol Δ7 reductase (protein, listed as Arabidopsis thaliana)
chain: MAETVHSPIVTYASMLSLLAFCPPFVILLWYTMVHQDGSVTQTFGFFWENGVQGLINIWPRPTLIAWKIIFCYGAFEAILQLLLPGKRVEGPISPAGNRPVYKANGLAAYFVTLATYLGLWWFGIFNPAIVYDHLGEIFSALIFGSFIFCVLLYIKGHVAPSSSDSGSCGNLIIDFYWGMELYPRIGKSFDIKVFTNCRFGMMSWAVLAVTYCIKQYEINGKVSDSMLVNTILMLVYVTKFFWWEAGYWNTMDIAHDRAGFYICWGCLVWVPSVYTSPGMYLVNHPVELGTQLAIYILVAGILCIYINYDCDRQRQEFRRTNGKCLVWGRAPSKIVASYTTTSGETKTSLLLTSGWWGLARHFHYVPEILSAFFWTVPALFDNFLAYFYVIFLTLLLFDRAKRDDDRCRSKYGKYWKLYCEKVKYRIIPGIY
Ca^2+/CaM binding (Ca^2+/CaM): Ca^2+/CaM-binding proteins

B6: Δ518-539: Arabidopsis thaliana DWF1 protein Δ518-539 mutant, a total deletion of the CaMBD (protein, listed as Arabidopsis thaliana)
chain: MSDLQTPLVRPKRKKTWVDYFVKFRWIIVIFIVLPFSATFYFLIYLGDMWSESKSFEKRQKEHDENVKKVIKRLKGRDASKDGLVCTARKPWIAVGMRNVDYKRARHFEVDLGEFRNILEINKEKMTARVEPLVNMGQISRATVPMNLSLAVVAELDDLTVGGLINGYGIEGSSHIYGLFADTVEAYEIVLAGGELVRATRDNEYSDLYYAIPWSQGTLGLLVAAEIRLIKVKEYMRLTYIPVKGDLQALAQGYIDSFAPKDGDKSKIPDFVEGMVYNPTEGVMMVGTYASKEEAKKKGNKINNVGWWFKPWFYQHAQTALKKGQFVEYIPTREYYHRHTRCLYWEGKLILPFGDQFWFRYLLGWLMPPKVSLLKATQGEAIRNYYHDMHVIQDMLVPLYKVGDALEWVHREMEVYPIWLCPHKLFKQPIKGQIYPEPGFEYENRQGDTEDAQMYTDVGVYYAPGCVLRGEEFDGSEAVRRMEKWLIENHGFQPQYAVSELDEKSFWRMFNGELYEEKTEKEVREAEQAHLETAYAEAD
CaM-binding ability (35S-CaM): undetectable | phenotype rescue of dwf1 mutant (dwf1 null mutant): grew like the uncomplemented dwf1 mutants | recovery of DWF1 function [1]: almost non-existent
